The data set concerns the target T1, 33-mer peptide fragment of α-gliadin, LQLQPFPQPQLPYPQPQLPYPQPQLPYPQPQPF (SEQ ID NO:1).
T1 chain: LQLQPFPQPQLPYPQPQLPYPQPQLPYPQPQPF

Values joined by “and” are separate entries in the source; they are usually repeats but may differ in a detail not shown here. Identical values can stand only once.

B1: papain (protein)
chain: IPEYVDWRQKGAVTPVKNQGSCGSCWAFSAVVTIEGIIKIRTGNLNEYSEQELLDCDRRSYGCNGGYPWSALQLVAQYGIHYRNTYPYEGVQRYCRSREKGPYAAKTDGVRQVQPYNEGALLYSIANQPVSVVLEAAGKDFQLYRGGIFVGPCGNKVDHAVAAVGYGPNYILIKNSWGTGWGENGYIRIKRGTGNSYGVCGLYTSSFYPVKN
Turning to B1, the “hydrolysis of the 33-mer peptide (HPLC-MS), 1 hour, pH 4.5” value was “Papain completely hydrolyzed the 33-mer peptide at a pH of about 4.5”.

B2: Oryzin (protein)
chain: GLTTQKSAPWGLGSISHKGQQSTDYIYDTSAGEGTYAYVVDSGVNVDHEEFEGRASKAYNAAGGQHVDSIGHGTHVSGTIAGKTYGIAKKASILSVKVFQGESSSTSVILDGFNWAANDIVSKKRTSKAAINMSLGGGYSKAFNDAVENAFEQGVLSVVAAGNENSDAGQTSPASAPDAITVAAIQKSNNRASFSNFGKVVDVFAPGQDILSAWIGSSSATNTISGTSMATPHIVGLSLYLAALENLDGPAAVTKRIKELATKDVVKDVKGSPNLLAYNGNA
For B2, the “degradation of the 33-mer peptide (ELISA of intact 33-mer), 0.1 mg/ml enzyme, SIF pH 6.8” value is recorded as “Oryzin alone did not degrade the 33-mer peptide”; the “degradation of the 33-mer peptide (ELISA), 60 min, SIF pH 6.8, lowest enzyme concentrations” value is on record as “Oryzin, at the lowest concentrations, did not degrade the 33-mer peptide”; the “percent of the 33-mer peptide degraded (ELISA), 60 min, SIF pH 6.8, 0.4 mg/ml and 0.8 mg/ml enzyme” value was “at higher concentrations (0.4 mg/ml and 0.8 mg/ml), Oryzin degraded about 10% to about 20% of the 33-mer peptide”.

B3: Carboxypeptidase Y derived from Saccharomyces cerevisiae (protein)
chain: KIKDPKILGIDPNVTQYTGYLDVEDEDKHFFFWTFESRNDPAKDPVILWLNGGPGCSSLTGLFFELGPSSIGPDLKPIGNPYSWNSNATVIFLDQPVNVGFSYSGSSGVSNTVAAGKDVYNFLELFFDQFPEYVNKGQDFHIAGESYAGHYIPVFASEILSHKDRNFNLTSVLIGNGLTDPLTQYNYYEPMACGEGGEPSVLPSEECSAMEDSLERCLGLIESCYDSQSVWSCVPATIYCNNAQLAPYQRTGRNVYDIRKDCEGGNLCYPTLQDIDDYLNQDYVKEAVGAEVDHYESCNFDINRNFLFAGDWMKPYHTAVTDLLNQDLPILVYAGDKDFICNWLGNKAWTDVLPWKYDEEFASQKVRNWTASITDEVAGEVKSYKHFTYLRVFNGGHMVPFDVPENALSMVNEWIHGGFSL
Take B3: the “digestion of the 33-mer peptide (HPLC-MS), in vitro gastrointestinal model with pepsin, trypsin and chymotrypsin present” value is “GDEP-M, CPY, and the combination of GDEP-M and CPY efficiently digested the 33-mer peptide in the artificial gastrointestinal condition”; the “hydrolysis of the 33-mer peptide (HPLC-MS and ELISA), pH 5.0” value is “CPY, MX-PEP, and AN-PEP hydrolyze the 33-mer peptide. AN-PEP appears to have the strongest activity against the 33-mer peptide, followed by CPY and then MX-PEP”; the “hydrolysis of the 33-mer peptide (HPLC-MS), 4 hours, SIF pH 6.8” value was “CPY efficiently hydrolyzed the 33-mer peptide and residual peptides were approximately 20 amino acids in length”; the “hydrolysis of the 33-mer peptide (HPLC-MS), 4 hours, buffer pH 4.0 to 7.0” value is “CPY completely hydrolyzed the 33-mer peptide at acidic pH”. Also, the “percent of the 33-mer peptide digested (ELISA), in vitro gastrointestinal model with pepsin, trypsin and chymotrypsin present” value was “CPY alone digested about 95% of the 33-mer peptide”.

B4: proteinase K (protein)
chain: AAQTNAPWGLARISSTSPGTSTYYYDESAGQGSCVYVIDTGIEASHPEFEGRAQMVKTYYYSSRDGNGHGTHCAGTVGSRTYGVAKKTQLFGVKVLDDNGSGQYSTIIAGMDFVASDKNNRNCPKGVVASLSLGGGYSSSVNSAAARLQSSGVMVAVAAGNNNADARNYSPASEPSVCTVGASDRYDRRSSFSNYGSVLDIFGPGTSILSTWIGGSTRSISGTSMATPHVAGLAAYLMTLGKTTAASACRYIADTANKGDLSNIPFGTVNLLAYNNYQA
On to B4, for which the “hydrolysis of the 33-mer peptide (HPLC-MS), 15 hours, SIF pH 6.8” value is “at intestinal conditions (pH≈6.8), proteinase K did not hydrolyze most of the 33-mer peptide”.

B5: Neutral protease II (protein)
chain: TEVTDCKGDAESSLTTALSNAAKLANQAAEAAESGDESKFEEYFKTTDQQTRTTVAERLRAVAKEAGSTSGGSTTYHCNDPYGYCEPNVLAYTLPSKNEIANCDIYYSELPPLAQKCHAQDQATTTLHEFTHAPGVYQPGTEDLGYGYDAATQLSAQDALNNADSYALYANAIELKC
As for B5, the “degradation of the 33-mer peptide (ELISA of intact 33-mer), 0.1 mg/ml enzyme, SIF pH 6.8” value was “NP I and NP II each exhibited a limited ability to degrade the 33-mer peptide”; the “percent of the 33-mer peptide degraded (ELISA), 60 min, SIF pH 6.8” value is “NP II alone degraded about 20% to about 30% of the 33-mer peptide”.

The record behind these values is US9011842.
